The results in this text go back to article PMC12629992.

The target of this experiment is native myeloperoxidase monomer (one heavy and one light chain) (human) (UniProt P05164). The experiment can be described thus: mass photometry; native MPO 100 nM in 20 mM HEPES pH 7.5, 200 mM NaCl, without or with 10 or 50 mM DTT, diluted 1:10 before measuring; dimer to monomers.

In the case of “native myeloperoxidase monomer (one heavy and one light chain) (from UniProt P05164 279-745) (enzyme)”, the stoichiometry N (in general, the number of molecules, sites or subunits per partner or assembly) was determined as 2.
